Experimental data reported in a protein production outcome set (Wang et al. 2014).

Test: label from the status in PepcDB records

| Sequence | protein production |
| --- | --- |
| MSKKKSAAMTLKDFHGGSIPSDLPLPSAPGVTPKVIPDRPVFDRAPWGNSIGRPDQRARPSSSHAIRNLDDKSLFLPHNVNIGRNFSEDERKPLDGHSAPRRVVSDDVFRFANNRLEMKADSVLAGRHSGWAAGPLTHSGTGNIENSVSGNHSNIWNGRKEVSVANNEPGQSPWTKQPAVSNLVHTSALDQVSSGGWQSKLLVPSQMGFDVVKHSEIDTRVYKTNSPVISQGVEPHGTHVERALIAEDGIQRGKKLSREYEKIPGPTYVDAKEAKIVANTNDKPHPKYSDVKPAGHLVQPTAPSEVVERPKLNLLPRTKPLESVEKPVNDEKLENSASVLIQRENATQKSFNNSKSGLSTDEIPNQPAERPKLNLKPVAQLLEQPEVKTEKDRSAVFGGARPRELVLKERGIDEPEHHKLDQPTDRMVLKPIERVPEHASQRPVSSPRDMRTRKFDQKDGRNVSDIARSETQRRNWRENENKSARQQQQTQEKTRHPSPETWRKPVPQKLDSPNGTGIRHGKAASALELAQAYSPFSDPKSGIGSSNSFNKSRNNQTQQQPFSRLVGSTTTGRQINGY | failed |
| MSVAHENARRIISDILGKQNIERVWFVGCGGSLTGFWPGKYFLDCEASKLAVGYITSNEFVHATPKALGKNSVVILASQQGNTAETVAAARVAREKGAATIGLVYQPDTPLCEYSDYIIEYQWARYPETVDPAQQKAAYSLWLALEILAQTEGYAQYDELVSAFGRFSDVVHGAQRQVQEDAQRFAAEWKDEKVVYMMGSGPSFGAAHQESICILLEMQWINSASIHSGEYFHGPFEITEPGTPFILLQSSGRTRPLDDRAIRFIERYQGKLQLIDADKLGIQDLSTDVGEYFCGLLHNCVLDVYNLALATARNHPLTTRRYMWKVEY | not failed |
| MNKPLVVDLDGTLLRSDMLIESVLAYSKKGIRPVFHLPFWLLEGKAILKARLADRVDLSVEVLPYNTEVIDFIKQAKREQRQIVLATGTHKMFAEKIAEHLGLFDLVIATENGINLSARSKRDCLIDQFGEKGFDYIGNSHDDVVVWNAADKTYLADPEPGVKKKMDLQGGVARVFQTRQSSLRTFFRALRPHQWLKNLLLFIPLIASHQLTNITLIADALLAFVLFSMTASSGYLINDLLDLESDRYHPRKRNRPLASGELPILIGLISAPLLFLASLSASLILLSATFTISLVTYYLLSVVYSQYLKKIPLVDTIMLAGLYTVRILAGAFACSIIPTFWILAFSVFFFLSLAMLKRYAELLDLQTKGDTAKTSGRGYYPSDIQIIASLGTASGYLSILVLALYIQDARTIAMYKTHELIWLACPILLFWISRMWMLTHRGQMHDDPVLFAIKDRTSLITATLFACIFFLAILV | failed |
| MQHFKTKIEHFQIYIYFSAIILGILIGTNFPGISSILETLVAICIAILMFSMFSQIPFFELQKRVLNLKFVTALIIANFVILPILVYFLISIFNISSSAILIGLFLVLLTPCIDYVIVFTALGKGNAQYMLISTPILFVLQILLLPLYLTMFLDKSILTIIDIEPFIHSFFTFIIIPLLLALTLQLLSKKYYVMSQTLKATSWLPELFMSLVLFTVVGSQINKIANDLSVVVKVAPIYIIFMLIAPFIGYFTGKLFHLKPSILRTLAFSTSTRNALVVLPLALSLPDQWVTITTTVIITQTLIELIGELFYIKMIPSLIKS | failed |
| MGNFTFEEMNLMCIYNTGSRTGLIDSLREMRGELAPEETELRELTDSALGNLQAMSDAEFAELELYPDFDQ | failed |
| MDLENNNNTPLTGKQAEKCAKKRKCVITLDEKQVESKRLKKEESNVEATSRPPAQSPKKRLHLNGKPMQNKDLNFKYGNYKHYYGKRILNKDFHDIRLDVLGTQPDLFRNKQLLDIGCNSGHLSIQIARKFEVKSLVGLDIDRGLINDAQKTVSHLKRHATPGQGIPHIQFVHGNYVLEDDVLLEIERPQFDVILCLSVTKWIHLNFCDSGLKQAFRRMYLQLRPGGKLILEPQSFDGYKRRKKLSEQIRDNYNAIKFRPDHFTEYLLSPEVGFAEMKLMGIPEHCKVGFKRPIQIFTKS | failed |
| MAAGKRDYYEVLGISKNASSQDIKRAFRKLAMQYHPDRHKAENETTQKQNEEKFKEVNEAYEVLSDEEKRKLYDQFGHEGLNASGFHEAGFNPFDIFNSVFGEGFSFGMDGDSPFDFIFNRSKKRQQQIVVPYNLDIALVIEINFFEMTNGCNKTIKYERKVSCHSCNGFGAEGGESGLDLCKDCNGNGFVIKNQRSIFGTIQSQVLCSTCNGQGKQIKVKCKTCRSNKYTVTNQIKEINIPAGMYSGEALVDESGGNEFKGHYGKLIIQVNVLASKIFKRSDNNVIANVLVDPMVAIVGGVIELPTLEGIKEFNIRPGTKSGEQIVIPNGGIKFSKSFKRKAGDLIIIISYARPCEYTNLELKKLREFIKPNQEVKQYLNTLKNEYKT | failed |
| MQSSNDPPRGAGGGPECAADHRAVPGRTYVETGQGAGYDGPRYDDPWYDALASGWGESAGPAAPGPTVPPMRRSAPAEPPRAAADVYLEVQRSAAFQEVRSRYRRFVVPAVAGFFLWYVAYVVAATSAPALMARPVAGAVNVAMVAGLGQFLTTFLLTWAYARHARLRRDRAALELRWDTQELTRGVRGDAS | failed |
| MSEFRPVPTTDREACQRILQYAFAPETGPVPPDPDGDWPPSLFDQRGLYDGGTLRAVCKLYFFDTTVRGAATTVGGLGAVATPPEHRGQGLAADLCRHALSAYRKADVGFVTLWPFSTPFYHRLGWGTANTYRRFDLPPSALPDPSTAGQLVRLDADDWERLRRVETAAAAGTALSLRRSEAWWRERTLADWDDDGVPYCYGYERDGELQGYVVYTVADDANNTLSVSNFAAVDEEARRALFAFLGHHGAQIERVTLQLPPDTDLFHRVDDPGAVDCTVEAGPMVRLTDVDYLERLDWPGGDLDCTLSVNDPLLDHNDGLFRLSVNGGTATVDPLPASDSKADVAVDIATLSQLAVGTHGVDAAERLAGLEMFDDSVRGPLADVFQPESVYLGEFF | failed |
| MRDITAQGSNVEEAIQNALATLETTRDKVEVEVLDEGKKGIFGIGSRLAMVKVIEKEDGIQVAIDYLLDVATKMGAVITIDVEEVGKDVKLQIKGESLGMLIGKHGQTLNALQYLTQLIANKTTSQYKNIIVNVGDYRERRHETLVLLANKMADKALKTKRAVHLEPMPSFERKIIHAILSENEQIETHSEGRDPYRYIVIKPVKK | failed |
| MKYIEPHFISFTQHTLKSQLIPKSFHGMKILQFSDLHLGYYFSLQHLSQVVSKINAVNPDIVLFTGDLIDNYQTYTDTPFVASILKNIQAPFGKFAIYGNHDHGGYGTEYYEHIMRESGFELLLNSKKRIRLMDNSEISIFGLDDILLGKPKIEKTLQHARQNTYNIVLVHEPDIAPQISKYPINLQLSGHSHGGQVQIPFLGAIITPSLAKDYIEGFYTMQDLTLYVNRGLGRTRVPFRFMSKPEITIFTLQHSLEHHHHHH | failed |
| MIFEIIKIGSQPINFAYPIPLLSLLAFMLSGSGYNELIISYIFAFSFFTAANLWNHLNDAEDDLNAGRNYARFLIEHRKIVTEFVVAFYFVSFLLIFFISKSKEIALLLTGLSVVLTWLYSDKIFIGKIIRRFKEDYKTEVFTYILCSFSFPLSFWTIFSEISQVGVVFTLATGFTYLSGFFLKDLKDISADIKSGYRTLAVVLSPSTLLIISVMLFIASTFVVIFSSLLDVTPTSSLLVLTVYPPILFAIYKFHKEKWKITKNIISSLKIYTYSYLGFLIAFAIGCKL | failed |
| SAKNAYTKLGTDDNAQLLDIRATADFRQVGSPNIKGLGKKAVSTVYNGEDKPGFLKKLSLKFKDPENTTLYILDKFDGNSELVAELVALNGFKSAYAIKDGAEGPRGWLNSSLPWIEPKKT | not failed |
| VHCLFVGAGSIAAEYAAELADSPLSLAGVCDLEEDRATALAAAHDCPAFTDLDTALSAVDAPLVVNLTNHAAHAPVTRTALEAGRHVYSQKPLALDEAAAAELLALAQDRNLALGCAPGTPDAPSQRRAGQMLADGRMGPVQLGYAHAHVGRV | failed |
| MDNLFTPSAKSVLVLAQEQAKYFKHQAVGTEHLLLALAIEKNGIANKVLQQYAVSEDDIREEIERFTGYGTLSNVGKDTYLPYSPKAKEILSVAGDEAKRLGANKIGTEHLLLAMLSDESILSSRILMNLNLDLGQTRKVVLRKLG | failed |
| MQLPPIPDNELQRLSTLKALNILDTNAEERFDRITRLTRRIFALPICVVTLVDASRQWFKSCQGLEVTETSRDISFCGHAINHDGIFIVNDAQMDPRFHDNPLVTQSPHIRFYAGYPLTIRGEYRVGTLCLIGNEPREFSADDIETLTDLGQMVEAELLSISLNTLDPLTMISNRRGFEQLAFQSLASCRRTNSQAALVFFDLDFFKELNDSFGHRKGDQVLYDFAHLLMAAFRESDVIARLGGDEFVVLLSFVKIDAVHVAIERFQSLLEQYNQQHPQQPTLVSSIGVAHWSPELDINLEDLLDAADRAMYQDKAEHHLNKPE | failed |
| MRVVHILLQVGILYGFYLVGSWIQKSFELIVPGSIIGMVLLLIALAIKAISPKWIEQGSMQLLLLMPMLFLPVTVGIMEYWHMFHGSGFWLLIIAFVSTILVFIISGWITQWLIAWKTKGIDKHDHL | failed |
| MSGLLSIFDLSDERGVLRTSIAVTFVISFLGIGFGLFSGSFSIVFDGVYSLIDAGMSLLSLIVVNLITSYAVADHLSRKLRERFSFGLWHLEPMVLGLNGILLISAALYALVTAIGSLLSGGRDLEFGSALIYAAVTVIACAGIAAVEWRANRKIGSEFLRLDVRGWIMSAGISAALLIAFMIGLAVQGTSWQWISPYIDPAVLAAVCVLIIPLPVSTVRQALADIFLVTPVDLKKHLDTVAAAFVAKHGFVSYRAYVARVGRSKEIELYFIVPADAPARTIGEWDMLRDEIGDLVGDDGPNRWLTVVFTGDPEWAE | failed |
| MHEESGPSWGMRGLRKWLGTAPETRDELLKLVQDSRRFLEPDTVAMLEGVLDLPATKVREVMTPRTSIISLQEDDELLDILHVLIESAHSRFPVFSSDQPDNVVGILLAKDLLPFLTEPSAKVDVRALMRQPLFVPESARSDQVLRMLKHTQTHIAVVIDEYGTTSGLVTLEDILEEIVGEIEDEHDNVDEEAQYIVPDHAHTTANSWMVQALTPIEHFNTVLDADFSDDEVETVGGLLLQEIGLVSDLQGQVIELDDWQFTIIEADARTIHLIRAVHK | failed |
| MLAILIFSFLLVILVAGNNSSAVSGTIIGSKMMNKSLALAITAVGYIAGYLLEGRFLQHAVNELLPFEPEYVLYAIIASFVIFTIAFFVKVPISLTMALVGSAIGLSLKLGYSSDARFLTEVIIAWIAAPLISVGSSYVFNDRLSKMRHGDIWRYASAIKVMPIVTAIFTAFTLGANTIGFLGDISGTAVFNEILISIGSVIGTFFFSSGIMKSVSQNMYMMKYTNAFSSQLISALVVEVSTLFSIPMSNTQTLTSAVLGAGLSYRAKAIYLKPFLYIVIMWILSPLIGMAFTYALA | failed |
| MLTNVVAVLLDGVHPFELGVVCEVFGIDRSDEGLPVYEFAVASAEGPTLRTHAGFSLRTEHGLERLETADLITLPAGNSYVSRGYPPELLDALRRAVDRGARLLSVCSGVFVLGAAGLLDGRRCAVHWHHADELARQYPKAIVEPDVLYVDEDPVITSAGTAAGIDACLHIVRKEQGPEVANAIARRMVVPPHRDGGQAQYIERPLPRSPCDTVGEVLVWMEQHLDEEVTVEQLAARAHMSPRTFARRFQQETGTTPYRWILRQRVLLAQRLLEVTDETMDAIAGRTGFGTAAALRHQFVRSLGTTPNAYRRTFRGPATGPLGLAG | failed |
| MVPLESSTLFGVYGGFTDSMMMRETTTNNQDPSGDTCSVSDPAPGSTDYYNISSSPVKDDGTAPKNDVVCSINVDDNKDKSWLRLGIGPEENTDGSYKLQRCCSKNGSGRENSLELSLFSSSSTAVSSSIDHLPTQPLQLPYHHDQLLTMRGPSLVYNHQLMKPQTLLNRGFSFPSSKPWIPQYMAPFRPSSLSDRDVTNNNSLSRSCCVDEGGAGPSSEFRVLDPPRRPHSGLWFLLQASQFQ | failed |
| MQEAPNTPTRPQAPPSAHLESPQPARTQQQSIQQMTPQSTTSSNNFLKDGAAGAVLEDQDIEEVLKALKTFDGGHVNPDTICEFFDEVWEEAAPAAPLPPAPPENVVDVPGAKPSCSGILVSGSNISQPNVIIKQEQRPWQESHAELEQQQHVISRRIEFLLRRMRKLQARAMCRHASEEVVGIMEWSARSSHKAPV | failed |
